Measurements as given in patent publication US20020192640A1 (Boehringer Ingelheim, published 2002).

Target: T1, 4K-6H-NS2/3 (904-1206)st-4K (Hepatitis C virus genotype 1b)
T1 chain: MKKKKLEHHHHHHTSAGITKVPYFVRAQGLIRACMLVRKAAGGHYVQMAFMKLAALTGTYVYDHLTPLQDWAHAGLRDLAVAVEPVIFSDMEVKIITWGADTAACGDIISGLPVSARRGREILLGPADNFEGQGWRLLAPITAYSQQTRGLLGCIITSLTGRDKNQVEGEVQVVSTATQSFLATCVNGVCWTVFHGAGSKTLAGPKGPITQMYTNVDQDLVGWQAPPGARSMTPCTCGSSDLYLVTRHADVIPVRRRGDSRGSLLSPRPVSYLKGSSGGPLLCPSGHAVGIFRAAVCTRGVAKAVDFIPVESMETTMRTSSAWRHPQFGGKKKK
Test: cell-based or functional assay

Binder | IC50, inhibition of NS2/3 autocleavage [µM]
SFEGQGWRLLAPITAYSQQT [Peptide 1, SFEGQGWRLL-APITAYSQQT] | 270
SFEGQGWRLL [Peptide 2, SFEGQGWRLL] | 90
APITAYSQQT [Peptide 3, APITAYSQQT] | > 1000
KGWRLLAPITAY [Peptide 4, KGWRLL-APITAY] | 630
APITAY [Peptide 5, APITAY] | 1000
